Laboratory results reported in the nanobody polyreactivity screen of Harvey et al. (2022).

Test: yeast display, Sf9 membrane polyspecificity reagent, FACS + sequencing; frameworks hold sequencing errors
Summary of the method: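 Sorting gates, low and high (top ~1%), were placed on anti-HA fluorescence to track expression and on streptavidin fluorescence to track reagent binding. A clone's polyreactivity label is taken from the gate it came out of. The reagent was 10% biotinylated, detergent-solubilized Sf9 membrane, applied for 1 hour at 4 °C to galactose-induced yeast display cells.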

Sequence | polyreactivity (PSR sort gate)
QVQLVESGGGLVQAGGSLRLSCAASGIIFRVYTMGWYRQAPGKERELVAGLSSGDSTSYADSVKGRFTISRDNAKNTVYLQMNSLKPEDTAVYYCNAVAYYSYSANFRNAYDYWGQGTQVTVSS | low polyreactivity
QVQLVESGGGLVQAGGSLRLSCAASGRIIVNNAMGWYRQAPGKERELVAAITRRGGSTYYADSVKGRFTISRDNAKNTVYLQMNSLKPEDTAVYYCARSNQRTVYVASDYWGQGTQVTVSS | high polyreactivity
QVQLVESGGGLVQAGGSLRLSCAASGLIIPKYAMGWYRQAPGKEREFVAAISGRGGTTYYADSVKGRFTISRDNAKNTVYLQMYSLKPEDTAVYYCAAGGPWANIYGNGYWGQGTQVTVSS | high polyreactivity
QVQLVESGGGLVQAGGSLRLSCAASGINFYYNAMGWYRQAPGKERELVATISWSDTSTYYADSVKGRFTISRDNAKNTVFLQMNSLKPEDTAGYYCATDGRETWLPEYYWGQGTQVTVSS | low polyreactivity
QVQLVESGGGLVQAGGSLRLSCAASGFIFSRYAMGWYRQAPGKERELVAAISIGGSTYYADSVKGRFTISRDNAKNTVYLQMNSLKPEDTAVYDCAVDYRHSSSWNAGPWEMYYWGQGTQVTVSS | low polyreactivity
QVQLVESGGGLVQAGGSLRLSCAASGNIFYYYAMGWYRQAPGKERELVATISKGGGSTNYADSVKGRFTISRDNAKNTVYLQMNSLKPEDTAVYYCNASYVSRRYHFDYWGQGTQVTVSS | high polyreactivity
QVQLVESGGGLVQAGGSLRLSCAASGRIFYNYAMGWYRQAPGKERELVAAISGSGGSTYYADSVKGRFTISRDNAKNTVYLQMNSLKPEDTAVYYCAKDYRWDRKFDYWGQGTQVTVSS | low polyreactivity
QVQLVESGGGLVQAGGSLRLSCAASGRTFYVNAMGWYRQAPGKERELVAAINTIGGRTYYADSVKGRFTISRDNAKNTVYLQMNSLKTEDTAVYYCAARQVSRWGYDYWGQGTQVTVSS | high polyreactivity
QVHLVESGGGLVQAGGSLRLSCAASGRIFRGYAMGWYRQAPGKERELVATISWNGGSTYYADSVKGRFTISRDNAKNTVYLQMNSLKPEDTAVYYCNKRYWGGRYGYDYWGQGTQVTVSS | high polyreactivity
QVQLVESGGGLVQAGGSLRLSCAASGSIFVLNAMGWYRQAPGKERELLAGITYSGGSTYYADSVKGRFTISRDNAKNTVYLQMNSLKPEDTAVYYCAAPVRRYPYPGRFYYWGQGTQVTVSS | low polyreactivity
QVQLVESGGGLVQAGGSLRLSCAASGSIFPFYAMGWYRHAPGKERELVASISSGGSTNYADSVKGRFTISRDNAKNTVYLQMNSLKPEDTAVYYCNAVVPYRWDTWFQVVYPESYDYWGQGTQVTVSS | low polyreactivity
QVQLVESGGGLVQAGGSLRLSCAASGSTFRDYDMGWYRQAPGKERELVAAISLSGGRTHYADSVKGRFTISRDNAKNTVYLQMNSLKPEDTAVYYCAARNTGPVQYYYWGQGTQVTVSS | low polyreactivity
QVQLVESGGGLVQAGGSLRLSCAASGRIFATNAMGWYRQAPGKERELVAIITRSAGRTYYADSVKGRFTISRDKAKNTVYLQMNSLKPEDTAVYYCNTVPRPFDRYGYWGQGTQVTVSS | low polyreactivity
QVQLVESGGGLVQAGGSLRLSCAASGSISGYYAMGWYRQAPGKERELVASIRYTGARTYYADSVKGRFTISRDNAKNTVYLQMNSLKPEDTAVYYCNARVDWGWPGYEYDYWGQGTQVTVSS | low polyreactivity
QVQLVESGGGLVQAGGSLRLSCAASGITFQSNAMGWYRQAPGKERELVAAIDWRGDSTYYADSVKGRFTISRDNAKNTVYLQMNSLKPEDTAVYYCNADISGSGQWDGYDYWGQGTQVTVSS | low polyreactivity
QVQLVESVGGLVQAGGTLRLTCAASGSNFKAYAMRWYRQATGKERELVARIRYRGGSTYNADSVKGRFTISRDNAKNTVFLQMNSLKPEETAVYYCAARLSPYHTDRGDYLGQGTQVTVSS | high polyreactivity

Sequence | polyreactivity (PSR sort gate)
QVQLEESGGGLVQAGGSLRLSCAASGRIFGVNAMGWYRQAPGKERELVAAIRYSGGSTYYADSVKGRFTISRDNAKNTVYLQMNSLKPEDTAVYYCARDVWNYWDGVFQYYSYDFDYWGQGTQVTVSS | low polyreactivity
QVQLVESGGGLVQAGGSLRLSCAASGRTFGKNAMGWYRQAPGKERELVAAISWSGGRTYYADSVKGRFTISRDNAKNTVYLQMNSVKPVDTAVYYCATASYRNPSDYWGQGTQVTVSS | high polyreactivity
QVQLVESGGGLVQAGGSLRLSCAASGIIFHFNDMGWYRQAPGKERELVAAITSGGSTNYADSVKGRFTLSRDYAKKTVYLQMNSLKPEDTAVYYCNAEPPRGYTVSSGGEMDYWGQGTQVTVSS | low polyreactivity
QVQLVESGGGLVQAGGSLRLSCAASGSLFGDYVMGWSRQAPGKERELVAAINRGGSTYYADSVKGRFTISRDNAKNTVYLQMNSLKPEDTAVYYGAAGYPSWYYGYPYDSWGQGTQVTVSS | low polyreactivity
QVQLVESGGGLVQAAGSLRLSCAASVIIFGLYTMGWYRQAPGKERELVAAISDSGGRTYYADSVKGRFTISLDNAKNTVFLQMNSLKPEDTAVYYCAAEFWYVWEYNYWGQGTQVTVSS | high polyreactivity
QVQLVESGGGLVQAGGSLRLTSAGSGRIFVPYAMGCYRQAPGKERELVATITFGGGRTYYADSVKGRFTISRDNAKTTVFLQMNSLKPEDTAVYYCNAEGWYSVEYDYWGQGTQVTVSS | low polyreactivity
QVQLVESGGGLVQAGGSLRLSCAASGLTFSYYAMGWYRQAPGKERELVAAISITGSTNYADSVKGRFTISRDNAKNTVYLQMNSLKPEDTAVYYCAARRSLSVLPYYYWGQGTQVTVSS | high polyreactivity
QVQLVESGGGLVQAGGSLRLSCAASGFIFQGNAMGWYRQAPGKEREFVAAISWSGGRTYYADSVKGRFTISRDNAKNTVYLQMNSLKPEDTAVYYCAVTPVRFASGGAWMDYWGQGTQVTVSS | high polyreactivity
QVQLVESGGGLVQAGGSLRLICAPSGSTNRYYAIGWSRQAPRKEMELVAPISWRGGSTYYADSVKGRFRISRDNANNTVYLEMNSLKPEDTAVYYCNAAYSYAVRDPIDYGYWGQGTQVTVSS | high polyreactivity
QVQLVESGGGLVQAGGSLRLSCAASGSIFEGNGMGRYRQAPGKERELVAAITFRSGSTYYADSVKGRFTISRDNAKNTVYLQMNSLKPEDTAVYYCAADEYYQVSAYDYWGQGTQVNVSS | low polyreactivity
QVPLVESGGGLVQAGGSLRLSCAASGSTQNRYAMGWYRQAPGKEREFVAAITWRGGSTYADSVKGRFTISRDNAKTTVYLQMYSLKPEDTAVYYCAAQGYKQRVHYDYWGQGNQVTVSS | high polyreactivity
QVQLVESGGGLVQAGGSLRLSCAASGSTFPVNAMGWYRQAPGKERELVAAITYRDGDTYYADSVKGRFTISRDNAKNTVYLEMHSLKPEDTAVYYCNADVGRHGKNRHMDYWGQGTQVTVSS | low polyreactivity
QVQLEESGGALVQAGGSLRISCAASGSTFYYNAMGWYRQAPGKERELVAVITLNGGRTSYADSVKGRFTISRDNAKNTVYLQMNSLKPEDSAVYYCAADRYRGYGYWGQGTQVTVSS | low polyreactivity
QVHLVESGGGLVQAGGSLRLSCAASGRTFWDYAMRWYRQAPGKEREFVAAINTYGGRTYYADSVKGRFTISRDNAINTVYLQMNSLKPEDTAVYYCADRTRDRAYDSWGQGTEVTVSS | high polyreactivity
QVQLVESGGGLVQAGGSLRLSCAASGLTFPYYAMGWYRQAPGKEREFVAAISRGGGRTSYADSVKGRFTISRDNAKNTVYLQMNSLKPEDTAVYYCAADDPGWYSDLYYYWGLGTQVTVSS | high polyreactivity
